Laboratory results published in patent US20200024319A1 (Amgen, published 2020).
Numbering of substitutions follows the chain as printed. In names and notes the source's numbering stands.

T1: CD25 (IL-2Rα) on the surface of T cells (human, UniProt P01589 22-272)
T1 construct: whole, on cells; also called cell surface CD25
T1 sequence (looked up): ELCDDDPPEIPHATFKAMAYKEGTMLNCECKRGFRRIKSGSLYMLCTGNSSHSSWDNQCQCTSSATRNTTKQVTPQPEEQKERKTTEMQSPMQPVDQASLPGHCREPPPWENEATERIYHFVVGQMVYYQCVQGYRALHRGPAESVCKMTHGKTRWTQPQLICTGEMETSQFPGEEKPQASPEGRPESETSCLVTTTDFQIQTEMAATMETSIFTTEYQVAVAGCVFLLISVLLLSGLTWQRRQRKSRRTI

B1: haD5 fused to the amino terminus of Fc, separated by a GGGGS linker (Fc fusion)
chain: APTSSSTKKTQLQLQNLLLDLQMILNGISNHKNPRLARMLTFKFYMPEKATELKHLQCLEEELKPLEEALRLAPSKNFHLRPRDLISDINVIVLELKGSETTFMCEYADETATIVEFLNRWITFSQSIISTLTGGGGS
notes: IL-2 mutein N-terminal of the Fc; dimer by the Fc; also called haD5 Fc fusion; not shown: IgG1 Fc with an effector function mutation (A327Q, L234A+L235A or N297G)
B2: 14D7 (antibody, V domains shown)
VH: QVQLQESGPGLVKPSQTLSLTCTVSGGSISSGGYYWNWIRQHPGKGLEWIGYIYYSGNTHYNPSLKSRVTISVDTSKNQFSLKLSSVIAADTAVYYCARDWGRDAFDIWGQGTMVTVSS
VL: DIQMTQSPSSLSASVGDRVTITCRASQTISSYLNWYQQKPGKAPKVLIYAASSFQSGVPSRFSGSGSGTDFTLTISSLQPEDFATYYCQQSHYIPRTFGQGTKVEIK
B3: 14G7 (antibody, V domains shown)
VH: EVQLVQSGAEVKKPGESLKISCKGSGYSFTDYWIGWVRQMPGKGLEWMGIIYPYDSDTRYSPSFQGQVTLSADKSISTAYLRWSSLKASDTAMYYCARHRGGRSYYYGMDVWGQGTTVTVSS
VL: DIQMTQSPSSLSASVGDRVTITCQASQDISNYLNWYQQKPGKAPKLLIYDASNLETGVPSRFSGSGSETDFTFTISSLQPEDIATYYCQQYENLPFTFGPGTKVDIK
B4: 18F3 (antibody, V domains shown)
VH: QVQLQESGPGLVKPSQTLSLTCTVSGGSISSGGYYWSWIRQHPGKGLEWIGYIYYSGSTDYNPSLKSRGIISGDTSKNQFSLKLNSVTAADTAVYYCAREGRFGELGSYYFDYWGQGTLVTVSS
VL: SYELTQPPSVSVSPGQTARIACSGDALPRKFAYWYQQKSGQAPVLVISEDSRRPSGIPERFSGSSSGTMATLTISGAQVEDEADYYCFSTDSSANHRVFGGGTKLTVL
B5: 26C12 (antibody, V domains shown)
VH: EVQLVQSGAEVKKPGESLKISCKGSGYRFTSYWIGWVRQMPGKGLEWMGIIFPGDSDTRYSPSFQGQVTISADKSITTAYLQWSSLKASDTAIYYCARHGHGSSSGRTYYYGLDVWGQGTTVTVSS
VL: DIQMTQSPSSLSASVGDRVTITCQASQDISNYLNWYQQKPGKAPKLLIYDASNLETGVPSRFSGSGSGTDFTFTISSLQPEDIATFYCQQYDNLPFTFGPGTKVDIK
B6: 26H7 (antibody, V domains shown)
VH: EVQLVQSGAEVKKPGESLKISCKGSGYRFTNYWIGWVRQMPGKGLEWMGIIYPGDSDTKYSPSFQGQVTISADKSISTAYLQWSSLKASDTAMYYCARHGGYSGRSYYYGMDVWGQGTAVTVSS
VL: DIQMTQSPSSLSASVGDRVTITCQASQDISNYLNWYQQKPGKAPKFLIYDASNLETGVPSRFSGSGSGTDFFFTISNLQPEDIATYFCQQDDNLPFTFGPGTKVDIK
B7: 2H11 (antibody, V domains shown)
VH: EVQLVQSGAEVKKPGESLKISCKGSGYNFTTYWIGWVRQMPGKGLEWMGIIYPGDSDTRYSPSFQGQVTISADKSINTAYLQWSSLKASDTAIYYCARDTGYFDYWGQGTLVTVSS
VL: B4 VL with A21T, S48Y, S51R, R52K, F88Y, S92R, A94G, N95D, R97V
B8: 9B10 (antibody, V domains shown)
VH: QVQLVESGGGVVQPGRSLRLSCAASGFTFSSYAMHWVRQAPGKGLEWVAVIWYDGINKYYADSVKGRFTISRDNSKNTLYLQMNSLRAEDTAVYYCARGSYYDSSGYYFGEDFDYWGQGTLVTVSS
VL: DIVMTQTPLSSPVTLGQPASISCRSSHNLLHSDGNTYLSWLQQRPGQPPRLLIYEISNRFSGVPDRFSGSGAGTDFTLKISRVEAEDVGVYYCMQVTQFPTFGGGTKVEIK
B9: 9D6 (antibody, V domains shown)
VH: EVQLVQSGAEVKKPGESLKISCKGSGYRFTSYWIGWVRQMPGKGLEWMGIIHPGDSDTRYSPSFQGQVTISADKSISTAYLQWSSLKASDTAIYYCTRQGRSFYYYGMDVWGQGTTVTVSS
VL: DIVMTQTPLSLPVTPGEPASISCRSSQSLLDSDEGNTYLDWYLQKPGQSPQLLIYTLSYRASGVPDRFSGTGSDTDFTLKISRVEAEDVGVYYCMQRIEFPLTFGGGTKVEIK
B10: 2C3 (antibody, V domains shown)
VH: EVQLVQSGAEVKKPGESLKISCKGSGYRFTSYWIGWVRQMPGKGLEWMGIIYPGDSDTRYSPSFQGQVTISADKSISAAYLQWSSLKASDTAMYYCARQQVAGMLDYWGQGTLVTVSS
VL: EIVLTQSPGTLSLSPGERATLSCRASQSFSSSYLVWYQQKPGQAPRLLIYGASSRATGIPDRFGGSGSGTDFTLTISRLEPEDFAVYYCQQYGSSPLTFGGGTKVEIK
B11: HaMut1D (V69A, Q74P, N88D, C125A) (ligand)
chain: APTSSSTKKTQLQLEHLLLDLQMILNGINNYKNPKLTRMLTFKFYMPKKATELKHLQCLEEELKPLEEALNLAPSKNFHLRPRDLISDINVIVLELKGSETTFMCEYADETATIVEFLNRWITFAQSIISTLT
notes: not shown: C-terminal FLAG and poly-His tag
B12: HaMut2D (N30S, V69A, Q74P, N88D, C125A) (ligand)
chain: B11 chain with N30S
notes: human IL-2 mutein; not shown: C-terminal FLAG and poly-His tag
B13: HaMut3D (K35R, V69A, Q74P, N88D, C125A) (ligand)
chain: B11 chain with K35R
notes: as for B12
B14: HaMut4D (T37A, V69A, Q74P, N88D, C125A) (ligand)
chain: B11 chain with T37A
notes: as for B12
B15: HaMut5D (K48E, V69A, Q74P, N88D, C125A) (ligand)
chain: B11 chain with K48E
notes: as for B12
B16: HaMut6D (E68D, V69A, Q74P, N88D, C125A) (ligand)
chain: B11 chain with E68D
notes: as for B12
B17: HaMut7D (N71R, V69A, Q74P, N88D, C125A) (ligand)
chain: B11 chain with N71R
notes: as for B12
B18: HaMut8D (K35R, K48E, E68D, N88D, C125A) (ligand)
chain: B11 chain with K35R, K48E, E68D, A69V, P74Q
notes: as for B12

What follows are binders tested against T1, CD25 (IL-2Rα) on the surface of T cells (assay: binding to cell surface CD25 (method not described)).
B1: binds.

The binders below were run against T2, wild-type human IL-2 (human, UniProt P60568 21-153) (assay: BIACORE).
T2 construct: also called hIL-2
B2 was tested, and the Kd was roughly 0.3 nM. For B3, the Kd was roughly 0.28 nM. In the case of B4, the Kd is reported as roughly 0.05 nM. B5 was tested, and the Kd was roughly 0.27 nM. Work on B6 yielded a Kd of roughly 0.0013 nM. B7 showed a Kd of roughly 0.03 nM. B8 showed a Kd of roughly 0.11 nM. For B9, the Kd was roughly 0.041 nM.

These binders were tested against T3, cynomolgus monkey IL-2 (cynomolgus monkey, UniProt Q29615 21-154) (assay: BIACORE).
T3 construct: also called cyno IL-2
With B2 the Kd was roughly 0.14 nM. For B3, the Kd was roughly 0.13 nM. With B4 the Kd was roughly 0.05 nM. Work on B5 yielded a Kd of roughly 0.13 nM. Binder B6 has a Kd of roughly 0.31 nM. For B10, the Kd was roughly 0.0012 nM. For B7, the Kd was roughly 0.008 nM. For B8, the Kd was roughly 0.16 nM. B9 gave a Kd of roughly 0.016 nM.

What follows are binders tested against T1, CD25 (IL-2Rα) on the surface of T cells (assay: flow cytometry, binding to CD25 on the surface of activated T cells).
With B11 the Kd was roughly 2 nM. B12: binds. B13: binds. B14: binds. B15: binds. B16: binds. Work on B17 yielded a Kd of roughly 0.2 nM. B18: binds.
